From patent US20150017162A1 (OMEROS, published 2015)
Blank lines part the entries; values can stand above or below the binder they belong to.

Tests used:
[1] = target: T1, human MASP-2 (human, UniProt O00187 16-686); experiment: cell-based or functional assay
[2] = target: T1, human MASP-2; experiment: cell-based or functional assay; remark: listed apart in the source

T1 sequence (O00187 16-686): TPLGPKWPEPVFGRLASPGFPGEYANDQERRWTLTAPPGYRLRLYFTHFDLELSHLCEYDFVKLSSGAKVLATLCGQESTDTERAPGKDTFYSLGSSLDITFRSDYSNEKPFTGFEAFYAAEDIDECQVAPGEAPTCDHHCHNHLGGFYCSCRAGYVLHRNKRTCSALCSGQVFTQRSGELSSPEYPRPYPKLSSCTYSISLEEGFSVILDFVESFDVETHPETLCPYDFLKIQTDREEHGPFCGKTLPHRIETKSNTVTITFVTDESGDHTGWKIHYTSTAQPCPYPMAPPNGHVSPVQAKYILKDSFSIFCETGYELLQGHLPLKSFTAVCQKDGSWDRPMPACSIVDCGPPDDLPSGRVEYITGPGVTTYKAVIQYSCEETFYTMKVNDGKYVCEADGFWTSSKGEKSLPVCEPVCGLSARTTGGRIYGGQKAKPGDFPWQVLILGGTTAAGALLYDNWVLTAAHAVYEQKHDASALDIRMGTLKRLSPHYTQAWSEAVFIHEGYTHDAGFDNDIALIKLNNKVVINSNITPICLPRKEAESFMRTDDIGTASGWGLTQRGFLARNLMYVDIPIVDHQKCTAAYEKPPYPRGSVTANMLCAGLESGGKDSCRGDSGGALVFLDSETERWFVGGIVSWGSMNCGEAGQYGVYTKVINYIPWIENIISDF

IC50, C3 assay, 1% human serum (average value) [1]: 68 nM
B1: scFv clone 17N16 (scFv)
scFv: QVQLQQSGPGLVKPSQTLSLTCAISGDSVSSTSAAWNWIRQSPSRGLEWLGRTYYRSKWYNDYAVSVKSRITINPDTSKNQFSLQLNSVTPEDTAVYYCARDPFGVPFDIWGQGTMVTVSSKLSGSASAPKLEEGEFSEARVSYVLTQPPSVSVAPGQTARITCGGNNIGSKNVHWYQQKPGQAPVLVVYDDSDRPSGIPERFSGSNSGNTATLTVSRVEAGDEADYYCQVWDTTTDHVVFGGGTKLTVLAAAGSEQKLISEEDLNSHHHHHH

IC50, C3 assay, 1% human serum (average value) [1]: 48 nM
B2: scFv daughter clone 17N16m_d17N9 (scFv)
chain: QVQLQQSGPGLVKPSQTLSLTCAISGDSVSSTSAAWNWIRQSPSRGLEWLGRTYYRSKWYNDYAVSVKSRITINPDTSKNQFSLQLNSVTPEDTAVYYCARDPFGVPFDIWGQGTMVTVSSSYELIQPPSVSVAPGQTATITCAGDNLGKKRVHWYQQRPGQAPVLVIYDDSDRPSGIPDRFSASNSGNTATLTITRGEAGDEADYYCQVWDIATDHVVFGGGTKLTVLAAAGSEQKLISE

IC50, C3 assay, 1% human serum (average value) [1]: 38 nM
B3: scFv clone 17D20 (scFv)
scFv: QVTLKESGPVLVKPTETLTLTCTVSGFSLSRGKMGVSWIRQPPGKALEWLAHIFSSDEKSYRTSLKSRLTISKDTSKNQVVLTMTNMDPVDTATYYCARIRAGGIDYWGQGTLVTVSSKLSGSASAPKLEEGEFSEARVQPVLTQPPSVSVSPGQTASITCSGDKLGDKFAYWYQQKPGHSPVLVIYQDNKRPSGIPGRFSGSNSGNTATLTISGTQAMDEADYYCQAWDSSTAVFGTGTKVTVLAAAGSEQKLISEEDLNSHHHHHH

IC50, C4 deposition in full human serum [2]: 0.0318 µg/mL
B4: NimoAb101 (antibody, V domains shown)
VH: EVQLVESGGGLVQPGRSLKLSCLVSGFTFSNFGMNWIRQAPGKGLEWVASISSGGTYIYHADTLKGRFTISRENAKNTLYLQMTSLRSEDTALYYCARGPYHSRYIPYLMDAWGQGASVTVSS
VL: DIQMTQSPGSLCASLGETVTIECRASDDIYSNLAWYQQKPGNSPQLLIFDGNRLADGVPSRFSGSGSGTQYSLKMKSLQFEDVASYFCQQYNNYPLTFGSGTKLEIKR
